According to the RNAGym collection of RNA variant scans (doi:10.7554/elife.80360):

B1: Hammerhead Ribozyme (parent)
chain: ACCGGAUGUGCUUUCCGGUCUGAUGAGUCCGUGAGGACGAAACAG

Variants of: B1
Assay: self-cleavage, relative activity (ratio to wild type); higher = more cleavage; co-transcriptional

Row | Variant | self-cleavage
1 | C16G A42G | 0.346
2 | C16G A42U | 0.26
3 | C16G A44C | 0.373
4 | C16G A44G | 1.18
5 | C16G A44U | 0.335
6 | C16G C20A | 0.336
7 | C16G C20G | 0.317
8 | C16G C20U | 0.408
9 | C16G C29A | 0.39
10 | C16G C29G | 0.496
11 | C16G C29U | 0.646
12 | C16G C30A | 0.712
13 | C16G C30G | 0.473
14 | C16G C30U | 0.899
15 | C16G C38A | 0.453
16 | C16G C38G | 0.358
17 | C16G C38U | 0.619
18 | C16G C43A | 0.337
19 | C16G C43G | 0.265
20 | C16G C43U | 0.285
21 | C16G G17A | 0.532

Row | Variant | self-cleavage
22 | C16G G17C | 0.445
23 | C16G G17U | 0.681
24 | C16G G18A | 0.533
25 | C16G G18C | 0.376
26 | C16G G18U | 0.744
27 | C16G G22A | 0.336
28 | C16G G22C | 0.284
29 | C16G G22U | 0.334
30 | C16G G25A | 0.357
31 | C16G G25C | 0.285
32 | C16G G25U | 0.384
33 | C16G G27A | 0.42
34 | C16G G27C | 0.35
35 | C16G G27U | 0.304
36 | C16G G31A | 1.16
37 | C16G G31C | 0.823
38 | C16G G31U | 1.05
39 | C16G G33A | 0.994
40 | C16G G33C | 0.956
41 | C16G G33U | 1.09
42 | C16G G35A | 0.459

Row | Variant | self-cleavage
43 | C16G G35C | 0.44
44 | C16G G35U | 0.472
45 | C16G G36A | 0.414
46 | C16G G36C | 0.362
47 | C16G G36U | 0.314
48 | C16G G39A | 0.254
49 | C16G G39C | 0.368
50 | C16G G39U | 0.345
51 | C16G G45A | 0.533
52 | C16G G45C | 0.397
53 | C16G G45U | 0.467
54 | C16G U19A | 0.253
55 | C16G U19C | 0.344
56 | C16G U19G | 0.33
57 | C16G U21A | 0.349
58 | C16G U21C | 0.354
59 | C16G U21G | 0.278
60 | C16G U24A | 0.751
61 | C16G U24C | 0.942
62 | C16G U24G | 0.611
63 | C16G U28A | 0.407

Row | Variant | self-cleavage
64 | C16G U28C | 0.269
65 | C16G U28G | 0.592
66 | C16G U32A | 1.03
67 | C16G U32C | 0.717
68 | C16G U32G | 0.882
69 | C16U | 0.983
70 | C16U A23C | 0.474
71 | C16U A23G | 0.423
72 | C16U A23U | 0.358
73 | C16U A26C | 0.467
74 | C16U A26G | 0.358
75 | C16U A26U | 0.816
76 | C16U A34C | 1
77 | C16U A34G | 1.08
78 | C16U A34U | 0.755
79 | C16U A37C | 0.843
80 | C16U A37G | 1.02
81 | C16U A37U | 0.848
82 | C16U A40C | 0.507
83 | C16U A40G | 0.294
